One molecule from publication PMC8860611 can be followed below.

The series has as its target native CA lattice tubes (HIV-1, UniProt P12493 133-363). The experiment in a line: filter binding.

B1: CA15-2 (1-104) (structured_RNA)
RNA: GGAAGAAGAGAAUCAUACACAAGAUCGACGUACCUCAGGGUGGUGUAUGACUGAGGUGAAGACUGUGAACCAUGGCAUGCGGGCAUAAGGUAGGUAAGUCCAUA
As for B1, the binding result is reported as “binds”.
